B1: hu504.32 (Fab) (Fab, V domains shown)
VH: EVQLVESGGGLVQPGGSLRLSCAASGFFITNNYWGWVRQAPGKGLEWVGYISYSGSTSYNPSLKSRFTISRDTSKNTFYLQMNSLRAEDTAVYYCAMTGSSGYFDFWGQGTLVTVSS
VL: DIQMTQSPSSLSASVGDRVTITCRASESVDDLLHWYQQKPGKAPKLLIKYASQSISGVPSRFSGSGSGTDFTLTISSLQPEDFATYYCQQGNSLPNTFGQGTKVEIKR
B2: Fib504Kグラフト (HVR graft with light chain Y49K, Fab displayed on phage) (Fab, V domains shown)
VH: EVQLVESGGGLVQPGGSLRLSCAASGFFITNNYWGWVRQAPGKGLEWVGYISYSGSTSYNPSLKSRFTISADTSKNTAYLQMNSLRAEDTAVYYCAMTGSSGYFDFWGQGTLVTVSS
VL: DIQMTQSPSSLSASVGDRVTITCRASESVDTYLHWYQQKPGKAPKLLIKYASQSISGVPSRFSGSGSGTDFTLTISSLQPEDFATYYCQQGNSLPNTFGQGTKVEIKR
notes: also called hu504Kグラフト; ヒト化504Kグラフト
B3: Fib504グラフト (direct HVR graft, Fab displayed on phage) (Fab, V domains shown)
VH: EVQLVESGGGLVQPGGSLRLSCAASGFFITNNYWGWVRQAPGKGLEWVGYISYSGSTSYNPSLKSRFTISADTSKNTAYLQMNSLRAEDTAVYYCAMTGSSGYFDFWGQGTLVTVSS
VL: DIQMTQSPSSLSASVGDRVTITCRASESVDTYLHWYQQKPGKAPKLLIYYASQSISGVPSRFSGSGSGTDFTLTISSLQPEDFATYYCQQGNSLPNTFGQGTKVEIKR
notes: Tested as monovalent Fab-g3 on phage (VH-CH1 fused to truncated P3); also called hu504グラフト; ヒト化抗体504グラフト

Legend:
[1] = target: 全長ヒトインテグリンアルファ4ベータ7 (expressed in 293 cells, purified by Fib504 affinity chromatography) (human) (UniProt P13612); test: Biacore SPR, Fab immobilised on CM5, alpha4beta7 injected (summary of Table 3)
[2] = target: T1, 全長ヒトインテグリンアルファ4ベータ7 (expressed in 293 cells, purified by Fib504 affinity chromatography) (human, UniProt P13612 34-1032; P26010 20-798); test: phage-displayed Fab on immobilised human alpha4beta7
T1 construct: mature; also called 固定化アルファ4ベータ7; α4β7

Row | Binder | fold tighter binding relative to the starting rat antibody [1] | binding result [2]
1 | B1 | 3 fold | –
2 | B2 | – | no binding
3 | B3 | – | no binding

From JP2007302676A (dated 2007)
